One molecule from patent US20250221953A1 (The University of Chicago, priority 2022, published 2025) can be followed below.

For this experiment, the system named is Jurkat T cells. Type of experiment: cell-based, human. Particulars: IL-2 production level in treated group compared to control group; 48 hours treatment, then anti-CD3/anti-CD28 12 hours. The source says: Two preliminary screens were designed and performed.
To construct “blood chemical compound library for cell-based screening purposes, components such as antibodies that are difficult to distinguish due to a wide variety, and some supplements that only function at a whole organism level including fish oils and herbs were excluded. Physiological ranges of serum levels of individual blood chemicals are available in the human metabolome database (https://hmdb.ca/) and applied in the experimental design. For first screen 1a, Jurkat T cells were treated with blood chemical library for 48 hours and then activated with 2.5 μg/mL anti-CD3 and 0.5 μg/mL anti-CD28 antibodies for another 12 hours, followed by measurement of IL-2 level in medium supernatant using ELISA kit (Biolegend). For first screen 1b, 1×10^5 PD-1^+ Jurkat T cells were co-cultured with 2×10^4 H596 (PD-L1^+) cells in a well of 96-well plate for 60 hours, and then activated with 2.5 μg/mL anti-CD3 and 0.5 μg/mL anti-CD28 antibodies for another 12 hours, followed by measurement of IL-2 level in medium supernatant using ELISA kit. Please also refer to Resources Table and Table 1-2 for more details.

B1: LIPASE FROM PORCINE PANCREAS (protein, UniProt P00591 1-450, looked up)
Pancreatic triacylglycerol …: SEVCFPRLGCFSDDAPWAGIVQRPLKILPWSPKDVDTRFLLYTNQNQNNYQELVADPSTITNSNFRMDRKTRFIIHGFIDKGEEDWLSNICKNLFKVESVNCICVDWKGGSRTGYTQASQNIRIVGAEVAYFVEVLKSSLGYSPSNVHVIGHSLGSHAAGEAGRRTNGTIERITGLDPAEPCFQGTPELVRLDPSDAKFVDVIHTDAAPIIPNLGFGMSQTVGHLDFFPNGGKQMPGCQKNILSQIVDIDGIWEGTRDFVACNHLRSYKYYADSILNPDGFAGFPCDSYNVFTANKCFPCPSEGCPQMGHYADRFPGKTNGVSQVFYLNTGDASNFARWRYKVSVTLSGKKVTGHILVSLFGNEGNSRQYEIYKGTLQPDNTHSDEFDSDVEVGDLQKVKFIWYNNNVINPTLPRVGASKITVERNDGKVYDFCSQETVREEVLLTLNPC
Take B1: the “Relative changed percentage (%)” value is reported as −9.403%.
